Experimental data taken from the supplement of paper PMC5998384.

What was measured:
[1] = system: HeLa Kyoto; test: thermal stability score vs G1/S (z-score of summed log2 fold changes over temperatures); higher = more thermally stable than in G1/S
[2] = system: HeLa Kyoto; test: melting temperature (median over replicates), in situ; higher = more thermally stable
[3] = cell cycle stage: early G1 (4.5 h after nocodazole release)
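Wherever melting temperature (median over replicates), in situ is given: HeLa Kyoto cells synchronized by double thymidine or nocodazole block, proteins quantified by TMT10plex mass spectrometry, three independent biological replicates.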
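Wherever thermal stability score vs G1/S (z-score of summed log2 fold changes over temperatures) is given: synchronized HeLa Kyoto cells, proteins quantified by TMT10plex mass spectrometry, three biological replicates, mitosis taken 0.5 h after nocodazole release, G1/S directly after double thymidine block.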

LSM5, sequence (chain, as listed by the source): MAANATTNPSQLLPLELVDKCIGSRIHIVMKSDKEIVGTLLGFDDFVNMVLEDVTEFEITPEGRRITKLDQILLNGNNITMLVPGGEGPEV

| Substance | thermal stability score [1, 3] | thermal stability score ([1]; cell cycle stage: mitosis) | melting temperature ([2]; cell cycle stage: G1/S) | melting temperature ([2]; cell cycle stage: mitosis) |
| --- | --- | --- | --- | --- |
| LSM5 | -2.66 | -1.99 | 55.9 °C | 52.9 °C |
| MAALGGDGLRLLSVSRPERPPESAALGGLGPGLCCWVSVFSCLSLACSYVGSLYVWKSELPRDHPAVIKRRFTSVLVVSSLSPLCVLLWRELTGIQPGTSLLTLMGFRLEGIFPAALLPLLLTMILFLGPLMQLSMDCPCDLADGLKVVLAPRSWARCLTDMRWLRNQVIAPLTEELVFRACMLPMLAPCMGLGPAVFTCPLFFGVAHFHHIIEQLRFRQSSVGNIFLSAAFQFSYTAVFGAYTAFLFIRTGHLIGPVLCHSFCNYMGFPAVCAALEHPQRRPLLAGYALGVGLFLLLLQPLTDPKLYGSLPLCVLLERAGDSEAPLCS [RCE1] | -0.209 | -0.247 |  | 55.3 °C |
| MAEFPSKVSTRTSSPAQGAEASVSALRPDLGFVRSRLGALMLLQLVLGLLVWALIADTPYHLYPAYGWVMFVAVFLWLVTIVLFNLYLFQLHMKLYMVPWPLVLMIFNISATVLYITAFIACSAAVDLTSLRGTRPYNQRAAASFFACLVMIAYGVSAFFSYQAWRGVGSNAATSQMAGGYA [PLLP] | -2.71 | -3.25 | 56.7 °C | 58.5 °C |
| MANAEVSVPVGDVVVVPTEGNEGENPEDTKTQVILQLQPVQQGLFIDGHFYNRIYEAGSENNTAVVAVETHTIHKIEEGIDTGTIEANEDMEIAYPITCGESKAILLWKKFVCPGINVKCVKFNDQLISPKHFVHLAGKSTLKDWKRAIRLGGIMLRKMMDSGQIDFYQHDKVCSNTCRSTKFDLLISSARAPVPGQQTSVVQTPTSADGSITQIAISEESMEEAGLEWNSALTAAVTMATEEGVKKDSEEISEDTLMFWKGIADVGLMEEVVCNIQKEIEELLRGVQQRLIQAPFQVTDAAVLNNVAHTFGLMDTVKKVLDNRRNQVEQGEEQFLYTLTDLERQLEEQKKQGQDHRLKSQTVQNVVLMPVSTPKPPKRPRLQRPASTTVLSPSPPVQQPQFTVISPITITPVGQSFSMGNIPVATLSQGSSPVTVHTLPSGPQLFRYATVVSSAKSSSPDTVTIHPSSSLALLSSTAMQDGSTLGNMTTMVSPVELVAMESGLTSAIQAVESTSEDGQTIIEIDPAPDPEAEDTEGKAVILETELRTEEKVVAEMEEHQHQVHNVEIVVLED [GMEB1] | 0.789 | 2.68 | 49 °C |  |
| MDDSGELGGLETMETLTELGDELTLGDIDEMLQFVSNQVGEFPDLFSEQLCSSFPGSGGSGSSSGSSGSSSSSSNGRGSSSGAVDPSVQRSFTQVTLPSFSPSAASPQAPTLQVKVSPTSVPTTPRATPILQPRPQPQPQPQTQLQQQTVMITPTFSTTPQTRIIQQPLIYQNAATSFQVLQPQVQSLVTSSQVQPVTIQQQVQTVQAQRVLTQTANGTLQTLAPATVQTVAAPQVQQVPVLVQPQIIKTDSLVLTTLKTDGSPVMAAVQNPALTALTTPIQTAALQVPTLVGSSGTILTTMPVMMGQEKVPIKQVPGGVKQLEPPKEGERRTTHNIIEKRYRSSINDKIIELKDLVMGTDAKMHKSGVLRKAIDYIKYLQQVNHKLRQENMVLKLANQKNKLLKGIDLGSLVDNEVDLKIEDFNQNVLLMSPPASDSGSQAGFSPYSIDSEPGSPLLDDAKVKDEPDSPPVALGMVDRSRILLCVLTFLCLSFNPLTSLLQWGGAHDSDQHPHSGSGRSVLSFESGSGGWFDWMMPTLLLWLVNGVIVLSVFVKLLVHGEPVIRPHSRSSVTFWRHRKQADLDLARGDFAAAAGNLQTCLAVLGRALPTSRLDLACSLSWNVIRYSLQKLRLVRWLLKKVFQCRRATPATEAGFEDEAKTSARDAALAYHRLHQLHITGKLPAGSACSDVHMALCAVNLAECAEEKIPPSTLVEIHLTAAMGLKTRCGGKLGFLASYFLSRAQSLCGPEHSAVPDSLRWLCHPLGQKFFMERSWSVKSAAKESLYCAQRNPADPIAQVHQAFCKNLLERAIESLVKPQAKKKAGDQEEESCEFSSALEYLKLLHSFVDSVGVMSPPLSRSSVLKSALGPDIICRWWTSAITVAISWLQGDDAAVRSHFTKVERIPKALEVTESPLVKAIFHACRAMHASLPGKADGQQSSFCHCERASGHLWSSLNVSGATSDPALNHVVQLLTCDLLLSLRTALWQKQASASQAVGETYHASGAELAGFQRDLGSLRRLAHSFRPAYRKVFLHEATVRLMAGASPTRTHQLLEHSLRRRTTQSTKHGEVDAWPGQRERATAILLACRHLPLSFLSSPGQRAVLLAEAARTLEKVGDRRSCNDCQQMIVKLGGGTAIAAS [SREBF2] | 7.8e-18 | 1.52e-16 |  |  |
| MEAVVNLYQEVMKHADPRIQGYPLMGSPLLMTSILLTYVYFVLSLGPRIMANRKPFQLRGFMIVYNFSLVALSLYIVYEFLMSGWLSTYTWRCDPVDYSNSPEALRMVRVAWLFLFSKFIELMDTVIFILRKKDGQVTFLHVFHHSVLPWSWWWGVKIAPGGMGSFHAMINSSVHVIMYLYYGLSAFGPVAQPYLWWKKHMTAIQLIQFVLVSLHISQYYFMSSCNYQYPVIIHLIWMYGTIFFMLFSNFWYHSYTKGKRLPRALQQNGAPGIAKVKAN [ELOVL1] | 2.04 | 1.9 | 52.8 °C | 52.4 °C |
| MGAALGTGTRLAPWPGRACGALPRWTPTAPAQGCHSKPGPARPVPLKKRGYDVTRNPHLNKGMAFTLEERLQLGIHGLIPPCFLSQDVQLLRIMRYYERQQSDLDKYIILMTLQDRNEKLFYRVLTSDVEKFMPIVYTPTVGLACQHYGLTFRRPRGLFITIHDKGHLATMLNSWPEDNIKAVVVTDGERILGLGDLGCYGMGIPVGKLALYTACGGVNPQQCLPVLLDVGTNNEELLRDPLYIGLKHQRVHGKAYDDLLDEFMQAVTDKFGINCLIQFEDFANANAFRLLNKYRNKYCMFNDDIQGTASVAVAGILAALRITKNKLSNHVFVFQGAGEAAMGIAHLLVMALEKEGVPKAEATRKIWMVDSKGLIVKGRSHLNHEKEMFAQDHPEVNSLEEVVRLVKPTAIIGVAAIAGAFTEQILRDMASFHERPIIFALSNPTSKAECTAEKCYRVTEGRGIFASGSPFKSVTLEDGKTFIPGQGNNAYVFPGVALGVIAGGIRHIPDEIFLLTAEQIAQEVSEQHLSQGRLYPPLSTIRDVSLRIAIKVLDYAYKHNLASYYPEPKDKEAFVRSLVYTPDYDSFTLDSYTWPKEAMNVQTV [ME3] | -5.4 | -4.14 |  |  |
| MKSLVLLLCLAQLWGCHSAPHGPGLIYRQPNCDDPETEEAALVAIDYINQNLPWGYKHTLNQIDEVKVWPQQPSGELFEIEIDTLETTCHVLDPTPVARCSVRQLKEHAVEGDCDFQLLKLDGKFSVVYAKCDSSPDSAEDVRKVCQDCPLLAPLNDTRVVHAAKAALAAFNAQNNGSNFQLEEISRAQLVPLPPSTYVEFTVSGTDCVAKEATEAAKCNLLAEKQYGFCKATLSEKLGGAEVAVTCMVFQTQPVSSQPQPEGANEAVPTPVVDPDAPPSPPLGAPGLPPAGSPPDSHVLLAAPPGHQLHRAHYDLRHTFMGVVSLGSPSGEVSHPRKTRTVVQPSVGAAAGPVVPPCPGRIRHFKV [AHSG] | -0.0372 | -0.632 |  |  |
| MNCRSEVLEVSVEGRQVEEAMLAVLHTVLLHRSTGKFHYKKEGTYSIGTVGTQDVDCDFIDFTYVRVSSEELDRALRKVVGEFKDALRNSGGDGLGQMSLEFYQKKKSRWPFSDECIPWEVWTVKVHVVALATEQERQICREKVGEKLCEKIINIVEVMNRHEYLPKMPTQSEVDNVFDTGLRDVQPYLYKISFQITDALGTSVTTTMRRLIKDTLAL [ATG101] | 0.111 | 1.17 |  |  |
| MNSGVAMKYGNDSSAELSELHSAALASLKGDIVELNKRLQQTERERDLLEKKLAKAQCEQSHLMREHEDVQERTTLRYEERITELHSVIAELNKKIDRLQGTTIREEDEYSELRSELSQSQHEVNEDSRSMDQDQTSVSIPENQSTMVTADMDNCSDLNSELQRVLTGLENVVCGRKKSSCSLSVAEVDKHIEQLTTASEHCDLAIKTVEEIEGVLGRDLYPNLAEERSRWEKELAGLREENESLTAMLCSKEEELNRTKATMNAIREERDRLRRRVRELQTRLQSVQATGPSSPGRLTSTNRPINPSTGELSTSSSSNDIPIAKIAERVKLSKTRSESSSSDRPVLGSEISSIGVSSSVAEHLAHSLQDCSNIQEIFQTLYSHGSAISESKIREFEVETERLNSRIEHLKSQNDLLTITLEECKSNAERMSMLVGKYESNATALRLALQYSEQCIEAYELLLALAESEQSLILGQFRAAGVGSSPGDQSGDENITQMLKRAHDCRKTAENAAKALLMKLDGSCGGAFAVAGCSVQPWESLSSNSHTSTTSSTASSCDTEFTKEDEQRLKDYIQQLKNDRAAVKLTMLELESIHIDPLSYDVKPRGDSQRLDLENAVLMQELMAMKEEMAELKAQLYLLEKEKKALELKLSTREAQEQAYLVHIEHLKSEVEEQKEQRMRSLSSTSSGSKDKPGKECADAASPALSLAELRTTCSENELAAEFTNAIRREKKLKARVQELVSALERLTKSSEIRHQQSAEFVNDLKRANSNLVAAYEKAKKKHQNKLKKLESQMMAMVERHETQVRMLKQRIALLEEENSRPHTNETSL [MCC] | 0.157 | -0.438 |  |  |
| MRRGERRDAGGPRPESPVPAGRASLEEPPDGPSAGQATGPGEGRRSTESEVYDDGTNTFFWRAHTLTVLFILTCTLGYVTLLEETPQDTAYNTKRGIVASILVFLCFGVTQAKDGPFSRPHPAYWRFWLCVSVVYELFLIFILFQTVQDGRQFLKYVDPKLGVPLPERDYGGNCLIYDPDNETDPFHNIWDKLDGFVPAHFLGWYLKTLMIRDWWMCMIISVMFEFLEYSLEHQLPNFSECWWDHWIMDVLVCNGLGIYCGMKTLEWLSLKTYKWQGLWNIPTYKGKMKRIAFQFTPYSWVRFEWKPASSLRRWLAVCGIILVFLLAELNTFYLKFVLWMPPEHYLVLLRLVFFVNVGGVAMREIYDFMDDPKPHKKLGPQAWLVAAITATELLIVVKYDPHTLTLSLPFYISQCWTLGSVLALTWTVWRFFLRDITLRYKETRWQKWQNKDDQGSTVGNGDQHPLGLDEDLLGPGVAEGEGAPTPN [PTDSS2] | -0.906 | -3.56 |  |  |
| MSGGDTRAAIARPRMAAAHGPVAPSSPEQVTLLPVQRSFFLPPFSGATPSTSLAESVLKVWHGAYNSGLLPQLMAQHSLAMAQNGAVPSEATKRDQNLKRGNWGNQIEFVLTSVGYAVGLGNVWRFPYLCYRNGGGAFMFPYFIMLIFCGIPLFFMELSFGQFASQGCLGVWRISPMFKGVGYGMMVVSTYIGIYYNVVICIAFYYFFSSMTHVLPWAYCNNPWNTHDCAGVLDASNLTNGSRPAALPSNLSHLLNHSLQRTSPSEEYWRLYVLKLSDDIGNFGEVRLPLLGCLGVSWLVVFLCLIRGVKSSGKVVYFTATFPYVVLTILFVRGVTLEGAFDGIMYYLTPQWDKILEAKVWGDAASQIFYSLGCAWGGLITMASYNKFHNNCYRDSVIISITNCATSVYAGFVIFSILGFMANHLGVDVSRVADHGPGLAFVAYPEALTLLPISPLWSLLFFFMLILLGLGTQFCLLETLVTAIVDEVGNEWILQKKTYVTLGVAVAGFLLGIPLTSQAGIYWLLLMDNYAASFSLVVISCIMCVAIMYIYGHRNYFQDIQMMLGFPPPLFFQICWRFVSPAIIFFILVFTVIQYQPITYNHYQYPGWAVAIGFLMALSSVLCIPLYAMFRLCRTDGDTLLQRLKNATKPSRDWGPALLEHRTGRYAPTIAPSPEDGFEVQPLHPDKAQIPIVGSNGSSRLQDSRI [SLC6A9] | -0.03 | 1.01 |  |  |
| SPG11 | -0.413 | -0.459 |  |  |
